Measurements from paper PMC7116145 (Science (New York, N.Y.), 2020).

B1: pentraxin domain of human neuronal pentraxin-1, biotinylated on a C-terminal Avitag (immobilised in SPR) (domain or fragment, UniProt Q15818 224-431, looked up)
chain: PGDKFQLTFPLRTNYMYAKVKKSLPEMYAFTVCMWLKSSATPGVGTPFSYAVPGQANELVLIEWGNNPMEILINDKVAKLPFVINDGKWHHICVTWTTRDGVWEAYQDGTQGGSGENLAPYHPIKPQGVLVLGQEQDTLGGGFDATQAFVGELAHFNIWDRKLTPGEVYNLATCSTKALSGNVIAWAESHIEIYGGATKWTFEACRQI
modifications: biotin on the Avitag (in vivo biotinylation by BirA)
B2: Cbln1, biotinylated on a C-terminal Avitag (immobilised in SPR) (natural protein, UniProt P23435 22-193, looked up)
chain: QNETEPIVLEGKCLVVCDSNPTSDPTGTALGISVRSGSAKVAFSAIRSTNHEPSEMSNRTMIIYFDQVLVNIGNNFDSERSTFIAPRKGIYSFNFHVVKVYNRQTIQVSLMLNGWPVISAFAGDQDVTREAASNGVLIQMEKGDRAYLKLERGNLMGGWKYSTFSGFLVFPL
modifications: biotin on the Avitag (in vivo biotinylation by BirA)

Assays:
[1] = target: T1, mouse glutamate receptor A4 amino-terminal domain (mouse, UniProt Q9Z2W8 21-420); test: SPR
T1 sequence (looked up): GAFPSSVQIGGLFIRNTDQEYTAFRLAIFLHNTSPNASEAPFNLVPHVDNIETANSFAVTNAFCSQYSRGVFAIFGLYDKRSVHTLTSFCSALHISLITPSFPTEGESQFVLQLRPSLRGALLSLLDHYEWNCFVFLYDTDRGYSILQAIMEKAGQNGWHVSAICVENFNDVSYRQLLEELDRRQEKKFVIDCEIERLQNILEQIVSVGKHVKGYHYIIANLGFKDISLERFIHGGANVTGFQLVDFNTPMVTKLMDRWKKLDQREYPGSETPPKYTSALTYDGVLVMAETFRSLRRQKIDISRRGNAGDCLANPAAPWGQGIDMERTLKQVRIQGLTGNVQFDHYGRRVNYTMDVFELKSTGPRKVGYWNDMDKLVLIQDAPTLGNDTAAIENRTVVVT

[2] = target: T2, human glutamate receptor D2 amino-terminal domain (human, UniProt O43424 24-440); test: SPR
T2 sequence (looked up): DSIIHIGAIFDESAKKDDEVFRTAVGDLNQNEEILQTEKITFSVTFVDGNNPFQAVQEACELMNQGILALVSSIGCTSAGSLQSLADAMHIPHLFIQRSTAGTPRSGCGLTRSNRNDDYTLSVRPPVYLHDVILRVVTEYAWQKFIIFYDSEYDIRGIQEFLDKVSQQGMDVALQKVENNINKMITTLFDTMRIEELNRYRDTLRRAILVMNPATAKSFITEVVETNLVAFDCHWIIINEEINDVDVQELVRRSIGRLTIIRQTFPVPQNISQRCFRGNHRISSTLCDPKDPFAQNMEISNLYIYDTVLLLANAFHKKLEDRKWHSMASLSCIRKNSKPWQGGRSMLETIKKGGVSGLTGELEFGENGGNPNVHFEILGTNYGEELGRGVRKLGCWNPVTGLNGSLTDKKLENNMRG

Binder	Kd [1] [µM]	Kd [2] [µM]
B1	11 ± 0.9	
B2		> 100
